Assay results taken from patent US20060003399A1, “High throughput actin polymerization assay” (Cytokinetics, Inc., priority 2004, published 2006).

Experiments:
Arp2/3 complex = molecular target: T1, Arp2/3 complex; assay: Actin polymerization assay comparing FL-WASP/N-WASP and truncated forms of WASP; format: biochemical, human; conditions: without activators, FIG. 7
T1 construct: from tissue
Experimental: 1. A cellular extract containing Arp2/3 complex was prepared from an Arp2/3 source such as human platelets (see, e.g., U.S. Provisional Application No. 60/578,969, filed Jun. 10, 2004; Welch and Mitchison (Meth. Enzymology 298:52-61,1988); and Higgs, H. N. et al. (Biochemistry 38:15212-15222, 1999), all of which are incorporated herein by reference in their entirety for all purposes).
Samples containing candidate agents (individually or as mixtures) are placed into wells on a multi-well plate. Mix 1 is added to each of the wells and mixed with the candidate agent. A sample of Mix 2 is then introduced into each well and the resulting mixture thoroughly mixed. Typically, Mix 1 and Mix 2 are mixed in 1:1 ratio (e.g., 50 μl each of Mix 1 and Mix 2).
Actin polymerization is measured as a function of time by exciting pyrene at 365 nm and by detecting an increase in fluorescence emission at 407 nm, or by exciting acrylodan at 405 nm and by detecting an increase in fluorescence emission at 460 nm. The change in fluorescence over time is utilized to determine a fluorescence parameter (e.g., maximal velocity, time to half maximal fluorescence intensity, or area under the curve of a plot of fluorescence versus time; see e.g., FIGS. 5A-5F).
Arp2/3 was purified as described in Example 1. […]

Arp2/3 = assay: Activities of WASP/N-WASP proteins (Table 4); format: biochemical
Text: The term “variant” or “analogue” generally refers to proteins that are functional equivalents to a native sequence that have similar amino acid sequences and retain, to some extent, one of the activities of the corresponding native protein. Variants/analogues include fragments that retain one or more activities of the corresponding native protein. Examples of WASP and N-WASP activity include, but are not limited to, capacity to: 1) bind Arp2/3 and actin; 2) activate the actin nucleation activity of Arp2/3 (descriptions of assays to detect nucleation activity are provided below); 3) bind an upstream regulator; 4) be regulated by one or more upstream regulators, thereby rendering the WASP or N-WASP protein able to activate the nucleation activity of Arp2/3; and 5) bind downstream regulators initiating signal transduction cascades. Some of the WASP and N-WASP proteins that are provided are able to recapitulate the full activity of WASP or N-WASP, which means that these proteins have all five of the activities just listed. […]
A third class of NPF proteins that can be utilized in some assays include WASP, N-WASP and SCAR proteins that include the WH1 domain but in which the PolyPro region is (e.g., deleted). A fourth class of NPF proteins that can be utilized in some assays are WASP, N-WASP and SCAR deletion mutants in which the PolyPro region is maintained but an N-terminal region (e.g., WH1 domain) is at least partially removed. Some proteins in this class are ones that include the B, CRIB/GBD (WASP and N-WASP), PolyPro and VCA domains, but in which some or all of the WH1 has been removed. One specific example is 98N-WASP, which includes amino acids 98-501 of SEQ ID NO:4. Another specific example is the 105WASP protein, which includes amino acids 105-501 of SEQ ID NO:2 (see FIG. 4B).
As indicated in this table, specific examples of fusion proteins that can be utilized include those that include a segment that encodes full-length WASP or N-WASP, including: Myc-WASP-TAP (SEQ ID NO:14); and Myc-N-WASP-TAP (SEQ ID NO: 16). Examples of fusion proteins that include a WASP or N-WASP deletion mutant domain include: GST-105WASP (SEQ ID NO:18); Myc-105WASP-TAP (SEQ ID NO:20); GST-tev-98N-WASP (SEQ ID NO:22); and Myc-98N-WASP-TAP (SEQ ID NO:24). The TAP tag in these particular fusion proteins has the general structure CBP-tev-ProtA (SEQ ID NO:36). Fusion proteins such as those listed in Table 4 can in some instances be utilized directly, or after one or both of the C- and N-terminal tags are removed. For example, the fusion proteins listed in Table 4 as having a TAP tag can be used once the TAP tag has been cleaved off and/or after the C-terminal tag has been removed.

[1] = Solubility of purified full-length WASP / N-WASP; format: physicochemical; conditions: purified TAP-tag protein from 293 cells

B1: FL-N-WASP: full length human N-WASP (SEQ ID NO:4), nucleation promoting factor (protein, listed as Homo sapiens)
chain: MSSVQQQPPPPRRVTNVGSLLLTPQENESLFTFLGKKCVTMSSAVVQLYAADRNCMWSKKCSGVACLVKDNPQRSYFLRIFDIKDGKLLWEQELYNNFVYNSPRGYFHTFAGDTCQVALNFANEEEAKKFRKAVTDLLGRRQRKSEKRRDPPNGPNLPMATVDIKNPEITTNRFYGPQVNNISHTKEKKKGKAKKKRLTKADIGTPSNFQHIGHVGWDPNTGFDLNNLDPELKNLFDMCGISEAQLKDRETSKVIYDFIEKTGGVEAVKNELRRQAPPPPPPSRGGPPPPPPPPHNSGPPPPPARGRGAPPPPPSRAPTAAPPPPPPSRPSVAVPPPPPNRMYPPPPPALPSSAPSGPPPPPPSVLGVGPVAPPPPPPPPPPPGPPPPPGLPSDGDHQVPTTAGNKAALLDQIREGAQLKKVEQNSRPVSCSGRDALLDQIRQGIQLKSVADGQESTPPTPAPTSGIVGALMEVMQKRSKAIHSSDEDEDEDDEEDFEDDDEWED
modifications: (1)..(505) FL-N-WASP
With B1 the “stimulation of actin polymerization by the protein alone (in words)” value (Arp2/3 complex) was “weakly stimulate actin polymerization”, the “Activate Arp2/3?” value (Arp2/3) was “Yes” and the “Regulated By Which Upstream Regulators?” value (Arp2/3) was “Cdc42, PIP2, Nck, Rac1”. The “solubility (in words)” value [1] was “completely soluble”.
